Test results reported in the Human Domainome abundance scans (Beltran et al. 2025).

B1: Calcium-binding protein 2, residues 155 to 219; numbered along this chain, Q9NPB3 (parent)
chain: RELRDAFREFDTNGDGRISVGELRAALKALLGERLSQREVDEILQDVDLNGDGLVDFEEFVRMMS

Variants of: B1
Experiment: abundance fitness (aPCA) (normalised: wild type 0, dead -1); higher = more abundant; growth selection in yeast, the domain comes from the species named
Settings: Homo sapiens

Abundance fitness, by site and new letter:
L35: F -0.257 | D 0.064 | Y 0.015 | E -0.109 | V -0.015 | M -0.399 | I 0.087 | S -0.031 | T 0.028 | W 0.045 | Q 0.043 | G 0.088 | C -0.113 | K 0.244 | P -0.02 | N 0.091 | H 0.061 | R 0.096 | A 0.1
A29: V -0.27 | R 0.047 | W -0.034 | S -0.02 | Y -0.214 | Q -0.04 | P -0.497 | T -0.023
R34: S -0.019 | K 0.187 | W -0.558 | L -0.177 | P 0.01 | N 0.043 | A 0.045 | F -0.298 | G 0.032 | E 0.14 | T 0.018 | M -0.207 | C 0.056 | Q 0.088 | V -0.129
Q37: A 0.003 | E 0.06 | C -0.533 | G -0.072 | D -0.351 | W -0.031 | S -0.104 | P 0.266 | R -0.087 | H -0.504 | L -0.017 | K 0.022 | M -0.278 | T 0.021 | N 0.221
L30: D -0.101 | F -0.17 | P -0.158 | Q 0.015 | K 0.134 | N 0.151 | I -0.134 | E -0.091 | A -0.255 | T -0.008 | V -0.053 | M -0.595 | R 0.069 | S -0.216 | C 0.057 | W -0.245
R38: I 0.03 | V -0.021 | Y -0.114 | T -0.052 | W -0.107 | P -0.056 | E -0.232 | Q -0.212 | S 0.001 | K -0.67 | D 0.1 | F -0.104 | A 0.001 | C -0.079 | M -0.112 | N 0.085 | G 0.014 | L -0.053
L31: H -0.021 | P 0.028 | Q 0.086 | D -0.164 | W -0.26 | E 0.069 | F 0.047 | V -0.048 | G 0.076 | M 0.169 | A 0.127 | T 0.074 | K 0.134 | Y -0.064 | R -0.043 | I -0.061
S36: T 0.012 | A 0.041 | N -0.197 | P -0.107 | Y -0.263 | W -0.177 | R -0.004 | M -0.092 | G -0.093 | K 0.047 | I 0 | F -0.085 | H -0.564 | Q 0.047 | V 0.07 | L 0.025 | E 0.024
V40: S -0.011 | C -0.086 | F -0.086 | E 0.169 | D 0.043 | K -0.04 | G -0.055 | R 0.108 | Q 0.063 | A 0.006 | I 0.047 | T -0.187 | H 0.038 | M 0.048
G32: L -0.64 | S -0.453 | C -0.514 | P -0.026 | M -0.567 | K -0.206 | Y -0.269 | E -0.522 | W -0.282 | V -0.429 | F -0.275 | D -0.29 | I -0.438 | T -0.526 | R -0.258 | N -0.246
E33: F -0.109 | Q -0.009 | A 0.002 | T -0.032 | L -0.195 | D 0.074 | C 0.006 | S -0.045 | Y -0.119 | M -0.049 | I -0.074 | K 0.037 | P -0.007
